Assay results: patent US20160113911A1, “METHODS AND COMPOSITIONS FOR THE TREATMENT OF CANCER” (THE GENERAL HOSPITAL CORPORATION, priority 2013, published 2016)
Numbering of substitutions follows the chain as printed. Names may count otherwise.

B1: 2A-I87V: KDM4A mutation (protein)
chain: MASESETLNPSARIMTFYPTMEEFRNFSRYIAYIESQGAHRAGLAKVVPPKEWKPRASYDDIDDLVIPAPIQQLVTGQSGLFTQYNVQKKAMTVREFRKIANSDKYCTPRYSEFEELERKYWKNLTFNPPIYGADVNGTLYEKHVDEWNIGRLRTILDLVEKESGITIEGVNTPYLYFGMWKTSFAWHTEDMDLYSINYLHFGEPKSWYSVPPEHGKRLERLAKGFFPGSAQSCEAFLRHKMTLISPLMLKKYGIPFDKVTQEAGEFMITFPYGYHAGFNHGFNCAESTNFATRRWIEYGKQAVLCSCRKDMVKISMDVFVRKFQPERYKLWKAGKDNTVIDHTLPTPEAAEFLKESELPPRAGNEEECPEEDMEGVEDGEEGDLKTSLAKHRIGTKRHRVCLEIPQEVSQSELFPKEDLSSEQYEMTECPAALAPVRPTHSSVRQVEDGLTFPDYSDSTEVKFEELKNVKLEEEDEEEEQAAAALDLSVNPASVGGRLVFSGSKKKSSSSLGSGSSRDSISSDSETSEPLSCRAQGQTGVLTVHSYAKGDGRVTVGEPCTRKKGSAARSFSERELAEVADEYMFSLEENKKSKGRRQPLSKLPRHHPLVLQECVSDDETSEQLTPEEEAEETEAWAKPLSQLWQNRPPNFEAEKEFNETMAQQAPHCAVCMIFQTYHQVEFGGFNQNCGNASDLAPQKQRTKPLIPEMCFTSTGCSTDINLSTPYLEEDGTSILVSCKKCSVRVHASCYGVPPAKASEDWMCSRCSANALEEDCCLCSLRGGALQRANDDRWVHVSCAVAILEARFVNIAERSPVDVSKIPLPRFKLKCIFCKKRRKRTAGCCVQCSHGRCPTAFHVSCAQAAGVMMQPDDWPFVVFITCFRHKIPNLERAKGALQSITAGQKVISKHKNGRFYQCEVVRLTTETFYEVNFDDGSFSDNLYPEDIVSQDCLQFGPPAEGEVVQVRWTDGQVYGAKFVASHPIQMYQVEFEDGSQLVVKRDDVYTLDEELPKRVKSRLSVASDMRFNEIFTEKEVKQEKKRQRVINSRYREDYIEPALYRAIME
B2: 2A-T289I: KDM4A mutation (protein)
chain: B1 chain with V87I, T289I
B3: 2A-G225C: KDM4A mutation (protein)
chain: B1 chain with V87I, G225C
B4: 2A-R218W: KDM4A mutation (protein)
chain: B1 chain with V87I, R218W
B5: 2A-G278S: KDM4A mutation (protein)
chain: B1 chain with V87I, G278S
B6: 2A-V319M: KDM4A mutation (protein)
chain: B1 chain with V87I, V319M
B7: 2A-R400Q: KDM4A mutation (protein)
chain: B1 chain with V87I, R400Q
B8: 2A-P326T: KDM4A mutation (protein)
chain: B1 chain with V87I, P326T
B9: 2A-V490M: KDM4A mutation (protein)
chain: B1 chain with V87I, V490M
B10: 2A-P348L: KDM4A mutation (protein)
chain: B1 chain with V87I, P348L
B11: 2A-E368K: KDM4A mutation (protein)
chain: B1 chain with V87I, E368K
B12: 2A-K123I: KDM4A mutation (protein)
chain: B1 chain with V87I, K123I
B13: 2A-R498H: KDM4A mutation (protein)
chain: B1 chain with V87I, R498H
B14: 2A-R239H: KDM4A mutation (protein)
chain: B1 chain with V87I, R239H
B15: 2A-E426K: KDM4A mutation (protein)
chain: B1 chain with V87I, E426K
B16: 2A-E113K: KDM4A mutation (protein)
chain: B1 chain with V87I, E113K
B17: 2A-A236V: KDM4A mutation (protein)
chain: B1 chain with V87I, A236V
B18: 2A-D524V: KDM4A mutation (protein)
chain: B1 chain with V87I, D524V
B19: 2A-G376V: KDM4A mutation (protein)
chain: B1 chain with V87I, G376V
B20: 2A-V919M: KDM4A mutation (protein)
chain: B1 chain with V87I, V919M
B21: 2A-R152W*: KDM4A mutation (protein, UniProt O75164 2-1064, looked up, variant R152W)
Lysine-specific demethylase 4A: ASESETLNPSARIMTFYPTMEEFRNFSRYIAYIESQGAHRAGLAKVVPPKEWKPRASYDDIDDLVIPAPIQQLVTGQSGLFTQYNIQKKAMTVREFRKIANSDKYCTPRYSEFEELERKYWKNLTFNPPIYGADVNGTLYEKHVDEWNIGWLRTILDLVEKESGITIEGVNTPYLYFGMWKTSFAWHTEDMDLYSINYLHFGEPKSWYSVPPEHGKRLERLAKGFFPGSAQSCEAFLRHKMTLISPLMLKKYGIPFDKVTQEAGEFMITFPYGYHAGFNHGFNCAESTNFATRRWIEYGKQAVLCSCRKDMVKISMDVFVRKFQPERYKLWKAGKDNTVIDHTLPTPEAAEFLKESELPPRAGNEEECPEEDMEGVEDGEEGDLKTSLAKHRIGTKRHRVCLEIPQEVSQSELFPKEDLSSEQYEMTECPAALAPVRPTHSSVRQVEDGLTFPDYSDSTEVKFEELKNVKLEEEDEEEEQAAAALDLSVNPASVGGRLVFSGSKKKSSSSLGSGSSRDSISSDSETSEPLSCRAQGQTGVLTVHSYAKGDGRVTVGEPCTRKKGSAARSFSERELAEVADEYMFSLEENKKSKGRRQPLSKLPRHHPLVLQECVSDDETSEQLTPEEEAEETEAWAKPLSQLWQNRPPNFEAEKEFNETMAQQAPHCAVCMIFQTYHQVEFGGFNQNCGNASDLAPQKQRTKPLIPEMCFTSTGCSTDINLSTPYLEEDGTSILVSCKKCSVRVHASCYGVPPAKASEDWMCSRCSANALEEDCCLCSLRGGALQRANDDRWVHVSCAVAILEARFVNIAERSPVDVSKIPLPRFKLKCIFCKKRRKRTAGCCVQCSHGRCPTAFHVSCAQAAGVMMQPDDWPFVVFITCFRHKIPNLERAKGALQSITAGQKVISKHKNGRFYQCEVVRLTTETFYEVNFDDGSFSDNLYPEDIVSQDCLQFGPPAEGEVVQVRWTDGQVYGAKFVASHPIQMYQVEFEDGSQLVVKRDDVYTLDEELPKRVKSRLSVASDMRFNEIFTEKEVKQEKKRQRVINSRYREDYIEPALYRAIME

These molecules were tested on H3K36me3 (assay: H3K36 demethylase activity of KDM4A variants in transfected cells (immunofluorescence)). Conditions: KDM4A mutations.
Type: cell-based
Set-up: key: + indicates active; − indicates inactive; +/− indicates partial acitivty
Description: The indicated NHF-tagged KDM4A deletion constructs were transfected into RPE cells grown on coverslips in 10 cm dishes using X-tremeGENE 9™ DNA transfection reagent (Roche). H3K36me3 and subcellular localization were assayed by examining transfected cells (positive for HA staining; HA.11 Covance) following fixation in 3.7% PFA in PBS (Whetstine et al., 2006).
All immunofluorescence experiments were performed as in (Black et al., 2013). For the localization experiment a minimum of 50 cells were blinded and scored. For the catalytic activity, cells overexpressing a high level of KDM4A WT or SNP-A482 were analyzed in a non quantitative manner.

| Molecule | H3k36 Demethylase Activity |
| --- | --- |
| B1 | + |
| B2 | − |
| B3 | +/− |
| B4 | − |
| B5 | − |
| B6 | + |
| B7 | + |
| B8 | + |
| B9 | + |
| B10 | + |
| B11 | + |
| B12 | + |
| B13 | + |
| B14 | +/− |
| B15 | + |
| B16 | + |
| B17 | + |
| B18 | + |
| B19 | + |
| B20 | + |
| B21 | + |

The molecules below were run on H3K9me3 (assay: H3K9 demethylase activity of KDM4 variants in transfected cells). Conditions: KDM4A mutations.
Type: cell-based
Set-up: key: + indicates active; − indicates inactive; +/− indicates partial acitivty

| Molecule | H3k9 Demethylase Activity |
| --- | --- |
| B1 | + |
| B2 | +/− |
| B3 | + |
| B4 | + |
| B5 | − |
| B6 | + |
| B7 | + |
| B8 | + |
| B9 | + |
| B10 | + |
| B11 | + |
| B13 | + |
| B14 | +/− |
| B15 | + |
| B16 | +/− |
| B17 | + |
| B18 | + |
| B19 | + |
| B21 | + |
